The supplement of paper PMC5998384

How the values were obtained:
HeLa Kyoto [1] = experiment: solubility in G1/S (NP-40 vs SDS abundance) (log2 ratio); higher = more soluble; conditions: cell cycle stage: G1/S
HeLa Kyoto [2] = experiment: melting temperature (median over replicates), in situ; higher = more thermally stable
HeLa Kyoto [3] = experiment: solubility change mitosis vs G1/S (difference of NP-40 vs SDS log2 ratios) (log2 ratio difference); higher = more soluble in mitosis
HeLa Kyoto [4] = experiment: thermal stability score vs G1/S (z-score of summed log2 fold changes over temperatures); higher = more thermally stable than in G1/S
[5] = cell cycle stage: early G1 (4.5 h after nocodazole release)
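Throughout, for melting temperature (median over replicates), in situ: HeLa Kyoto cells synchronized by double thymidine or nocodazole block, proteins quantified by TMT10plex mass spectrometry, three independent biological replicates.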
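Throughout, for solubility change mitosis vs G1/S (difference of NP-40 vs SDS log2 ratios): synchronized HeLa Kyoto cells (double thymidine block for G1/S, nocodazole release for mitosis), protein amounts in NP-40 versus SDS lysates quantified by mass spectrometry, three biological replicates.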
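Throughout, for solubility in G1/S (NP-40 vs SDS abundance): HeLa Kyoto cells arrested at G1/S by double thymidine block, proteins quantified by TMT10plex mass spectrometry in mild NP-40 versus SDS extracts, three biological replicates.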
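Throughout, for thermal stability score vs G1/S (z-score of summed log2 fold changes over temperatures): synchronized HeLa Kyoto cells, proteins quantified by TMT10plex mass spectrometry, three biological replicates, mitosis taken 0.5 h after nocodazole release, G1/S directly after double thymidine block.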

Sequence | solubility in G1/S (log2) (HeLa Kyoto [1]) | melting temperature (HeLa Kyoto [2]; cell cycle stage: G1/S) [°C] | melting temperature (HeLa Kyoto [2]; cell cycle stage: mitosis) [°C] | solubility change mitosis (log2) (HeLa Kyoto [3]) | thermal stability score (HeLa Kyoto [4]; [5]) | thermal stability score (HeLa Kyoto [4]; cell cycle stage: mitosis)
MAAVAALQLGLRAAGLGRAPASAAWRSVLRVSPRPGVAWRPSRCGSSAAEASATKAEDDSFLQWVLLLIPVTAFGLGTWQVQRRKWKLNLIAELESRVLAEPVPLPADPMELKNLEYRPVKVRGCFDHSKELYMMPRTMVDPVREAREGGLISSSTQSGAYVVTPFHCTDLGVTILVNRGFVPRKKVNPETRQKGQIEGEVDLIGMVRLTETRQPFVPENNPERNHWHYRDLEAMARITGAEPIFIDANFQSTVPGGPIGGQTRVTLRNEHLQYIVTWYGLSAATSYLWFKKFLRGTPGV [SURF1] | 0.298 | 52.2 | 52.2 | -0.105 | -0.638 | -0.542
MAARVLRARGAAWAGGLLQRAAPCSLLPRLRTWTSSSNRSREDSWLKSLFVRKVDPRKDAHSNLLAKKETSNLYKLQFHNVKPECLEAYNKICQEVLPKIHEDKHYPCTLVGTWNTWYGEQDQAVHLWRYEGGYPALTEVMNKLRENKEFLEFRKARSDMLLSRKNQLLLEFSFWNEPVPRSGPNIYELRSYQLRPGTMIEWGNYWARAIRFRQDGNEAVGGFFSQIGQLYMVHHLWAYRDLQTREDIRNAAWHKHGWEELVYYTVPLIQEMESRIMIPLKTSPLQ [GBAS] | 0.0162 | 53.7 | 53.3 | -0.0463 | -0.626 | -0.959
MAGPVSLRDLLMGASAWMGSESPGGSPTEGGGSAAGGPEPPWREDEICVVGIFGKTALRLNSEKFSLVNTVCDRQVFPLFRHQDPGDPGPGIRTEAGAVGEAGGAEDPGAAAGGSVRGSGAVAEGNRTEAGSQDYSLLQAYYSQESKVLYLLLTSICDNSQLLRACRALQSGEAGGGLSLPHAEAHEFWKHQEKLQCLSLLYLFSVCHILLLVHPTCSFDITYDRVFRALDGLRQKVLPLLKTAIKDCPVGKDWKLNCRPCPPRLLFLFQLNGALKVEPPRNQDPAHPDKPKKHSPKRRLQHALEDQIYRIFRKSRVLTNQSINCLFTVPANQAFVYIVPGSQEEDPVGMLLDQLRSHCTVKDPESLLVPAPLSGPRRYQVMRQHSRQQLSFHIDSSSSSSSGQLVDFTLREFLWQHVELVLSKKGFDDSVGRNPQPSHFELPTYQKWISAASKLYEVAIDGKEEDLGSPTGELTSKILSSIKVLEGFLDIDTKFSENRCQKALPMAHSAYQSNLPHNYTMTVHKNQLAQALRVYSQHARGPAFHKYAMQLHEDCYKFWSNGHQLCEERSLTDQHCVHKFHSLPKSGEKPEADRNPPVLYHNSRARSTGACNCGRKQAPRDDPFDIKAANYDFYQLLEEKCCGKLDHINFPVFEPSTPDPAPAKNESSPAPPDSDADKLKEKEPQTQGESTSLSLALSLGQSTDSLGTYPADPQAGGDNPEVHGQVEVKTEKRPNFVDRQASTVEYLPGMLHSNCPKGLLPKFSSWSLVKLGPAKSYNFHTGLDQQGFIPGTNYLMPWDIVIRTRAEDEGDLDTNSWPAPNKAIPGKRSAVVMGRGRRRDDIARAFVGFEYEDSRGRRFMCSGPDKVMKVMGSGPKESALKALNSDMPLYILSSSQGRGLKPHYAQLMRLFVVVPDAPLQIILMPQVQPGPPPCPVFYPEKQEITLPPDGLWVLRFPYAYVTERGPCFPPKENVQLMSYKVLRGVLKAVTQ [SMG8] | 0.118 | 49.4 | 48.5 | -0.0473 | 0.364 | 0.79
MAFQKAVKGTILVGGGALATVLGLSQFAHYRRKQMNLAYVKAADCISEPVNREPPSREAQLLTLQNTSEFDILVIGGGATGSGCALDAVTRGLKTALVERDDFSSGTSSRSTKLIHGGVRYLQKAIMKLDIEQYRMVKEALHERANLLEIAPHLSAPLPIMLPVYKWWQLPYYWVGIKLYDLVAGSNCLKSSYVLSKSRALEHFPMLQKDKLVGAIVYYDGQHNDARMNLAIALTAARYGAATANYMEVVSLLKKTDPQTGKVRVSGARCKDVLTGQEFDVRAKCVINATGPFTDSVRKMDDKDAAAICQPSAGVHIVMPGYYSPESMGLLDPATSDGRVIFFLPWQKMTIAGTTDTPTDVTHHPIPSEEDINFILNEVRNYLSCDVEVRRGDVLAAWSGIRPLVTDPKSADTQSISRNHVVDISESGLITIAGGKWTTYRSMAEDTINAAVKTHNLKAGPSRTVGLFLQGGKDWSPTLYIRLVQDYGLESEVAQHLAATYGDKAFEVAKMASVTGKRWPIVGVRLVSEFPYIEAEVKYGIKEYACTAVDMISRRTRLAFLNVQAAEEALPRIVELMGRELNWDDYKKQEQLETARKFLYYEMGYKSRSEQLTDRSEISLLPSDIDRYKKRFHKFDADQKGFITIVDVQRVLESINVQMDENTLHEILNEVDLNKNGQVELNEFLQLMSAIQKGRVSGSRLAILMKTAEENLDRRVPIPVDRSCGGL [GPD2] | 0.104 | 59.2 | 59 | -0.0945 | -2.62 | -2.93
MSGCDAREGDCCSRRCGAQDKEHPRYLIPELCKQFYHLGWVTGTGGGISLKHGDEIYIAPSGVQKERIQPEDMFVCDINEKDISGPSPSKKLKKSQCTPLFMNAYTMRGAGAVIHTHSKAAVMATLLFPGREFKITHQEMIKGIKKCTSGGYYRYDDMLVVPIIENTPEEKDLKDRMAHAMNEYPDSCAVLVRRHGVYVWGETWEKAKTMCECYDYLFDIAVSMKKVGLDPSQLPVGENGIV [APIP] | 0.253 | 59.3 | 57.6 | -0.078 | -1.32 | -2.26
MKRSSVSSGGAGRLSMQELRSQDVNKQGLYTPQTKEKPTFGKLSINKPTSERKVSLFGKRTSGHGSRNSQLGIFSSSEKIKDPRPLNDKAFIQQCIRQLCEFLTENGYAHNVSMKSLQAPSVKDFLKIFTFLYGFLCPSYELPDTKFEEEVPRIFKDLGYPFALSKSSMYTVGAPHTWPHIVAALVWLIDCIKIHTAMKESSPLFDDGQPWGEETEDGIMHNKLFLDYTIKCYESFMSGADSFDEMNAELQSKLKDLFNVDAFKLESLEAKNRALNEQIARLEQEREKEPNRLESLRKLKASLQGDVQKYQAYMSNLESHSAILDQKLNGLNEEIARVELECETIKQENTRLQNIIDNQKYSVADIERINHERNELQQTINKLTKDLEAEQQKLWNEELKYARGKEAIETQLAEYHKLARKLKLIPKGAENSKGYDFEIKFNPEAGANCLVKYRAQVYVPLKELLNETEEEINKALNKKMGLEDTLEQLNAMITESKRSVRTLKEEVQKLDDLYQQKIKEAEEEDEKCASELESLEKHKHLLESTVNQGLSEAMNELDAVQREYQLVVQTTTEERRKVGNNLQRLLEMVATHVGSVEKHLEEQIAKVDREYEECMSEDLSENIKEIRDKYEKKATLIKSSEE [NDC80] | 0.548 | 47.4 | 47.7 | 0.0863 | 0.223 | 0.715
MDDLCEANGTFAISLFKILGEEDNSRNVFFSPMSISSALAMVFMGAKGSTAAQMSQALCLYKDGDIHRGFQSLLSEVNRTGTQYLLRTANRLFGEKTCDFLPDFKEYCQKFYQAELEELSFAEDTEECRKHINDWVAEKTEGKISEVLDAGTVDPLTKLVLVNAIYFKGKWNEQFDRKYTRGMLFKTNEEKKTVQMMFKEAKFKMGYADEVHTQVLELPYVEEELSMVILLPDDNTDLAVVEKALTYEKFKAWTNSEKLTKSKVQVFLPRLKLEESYDLEPFLRRLGMIDAFDEAKADFSGMSTEKNVPLSKVAHKCFVEVNEEGTEAAAATAVVRNSRCSRMEPRFCADHPFLFFIRHHKTNCILFCGRFSSP [SERPINB8] | 0.146 | 54.6 | 54.2 | -0.115 | -0.0278 | -0.739
MAPAMQPAEIQFAQRLASSEKGIRDRAVKKLRQYISVKTQRETGGFSQEELLKIWKGLFYCMWVQDEPLLQEELANTIAQLVHAVNNSAAQHLFIQTFWQTMNREWKGIDRLRLDKYYMLIRLVLRQSFEVLKRNGWEESRIKVFLDVLMKEVLCPESQSPNGVRFHFIDIYLDELSKVGGKELLADQNLKFIDPFCKIAAKTKDHTLVQTIARGVFEAIVDQSPFVPEETMEEQKTKVGDGDLSAEEIPENEVSLRRAVSKKKTALGKNHSRKDGLSDERGRDDCGTFEDTGPLLQFDYKAVADRLLEMTSRKNTPHFNRKRLSKLIKKFQDLSEGSSISQLSFAEDISADEDDQILSQGKHKKKGNKLLEKTNLEKEKGSRVFCVEEEDSESSLQKRRRKKKKKHHLQPENPGPGGAAPSLEQNRGREPEASGLKALKARVAEPGAEATSSTGEESGSEHPPAVPMHNKRKRPRKKSPRAHREMLESAVLPPEDMSQSGPSGSHPQGPRGSPTGGAQLLKRKRKLGVVPVNGSGLSTPAWPPLQQEGPPTGPAEGANSHTTLPQRRRLQKKKAGPGSLELCGLPSQKTASLKKRKKMRVMSNLVEHNGVLESEAGQPQALGSSGTCSSLKKQKLRAESDFVKFDTPFLPKPLFFRRAKSSTATHPPGPAVQLNKTPSSSKKVTFGLNRNMTAEFKKTDKSILVSPTGPSRVAFDPEQKPLHGVLKTPTSSPASSPLVAKKPLTTTPRRRPRAMDFF [RRP1B] | -2.01 | 47.9 | 49.5 | 1.63 | 1.95 | 1.97
